Measurements as given in ChEMBL document CHEMBL2074368, “Kinetic analysis of calcein and calcein-acetoxymethylester efflux mediated by the multidrug resistance protein and P-glycoprotein” (Biochemistry, 1998).

How the values were obtained:
[1] = substrate: O=C(O)CN(CC(=O)O)Cc1cc2c(cc1O)Oc1cc(O)c(CN(CC(=O)O)CC(=O)O)cc1C21OC(=O)c2ccccc21; assay: (§1) TP_TRANSPORTER: efflux in GLC4/ADR cells; type: functional, cell-based, GLC-4/ADR
[2] = substrate: CC(=O)OCOC(=O)CN(CC(=O)OCOC(C)=O)Cc1c(OC(C)=O)ccc2c1Oc1c(ccc(OC(C)=O)c1CN(CC(=O)OCOC(C)=O)CC(=O)OCOC(C)=O)C21OC(=O)c2ccccc21; assay: as §1; type: functional, cell-based, GLC-4/ADR

B1: Multidrug resistance-associated protein 1 (Homo sapiens) (protein)
chain: MALRGFCSADGSDPLWDWNVTWNTSNPDFTKCFQNTVLVWVPCFYLWACFPFYFLYLSRHDRGYIQMTPLNKTKTALGFLLWIVCWADLFYSFWERSRGIFLAPVFLVSPTLLGITMLLATFLIQLERRKGVQSSGIMLTFWLVALVCALAILRSKIMTALKEDAQVDLFRDITFYVYFSLLLIQLVLSCFSDRSPLFSETIHDPNPCPESSASFLSRITFWWITGLIVRGYRQPLEGSDLWSLNKEDTSEQVVPVLVKNWKKECAKTRKQPVKVVYSSKDPAQPKESSKVDANEEVEALIVKSPQKEWNPSLFKVLYKTFGPYFLMSFFFKAIHDLMMFSGPQILKLLIKFVNDTKAPDWQGYFYTVLLFVTACLQTLVLHQYFHICFVSGMRIKTAVIGAVYRKALVITNSARKSSTVGEIVNLMSVDAQRFMDLATYINMIWSAPLQVILALYLLWLNLGPSVLAGVAVMVLMVPVNAVMAMKTKTYQVAHMKSKDNRIKLMNEILNGIKVLKLYAWELAFKDKVLAIRQEELKVLKKSAYLSAVGTFTWVCTPFLVALCTFAVYVTIDENNILDAQTAFVSLALFNILRFPLNILPMVISSIVQASVSLKRLRIFLSHEELEPDSIERRPVKDGGGTNSITVRNATFTWARSDPPTLNGITFSIPEGALVAVVGQVGCGKSSLLSALLAEMDKVEGHVAIKGSVAYVPQQAWIQNDSLRENILFGCQLEEPYYRSVIQACALLPDLEILPSGDRTEIGEKGVNLSGGQKQRVSLARAVYSNADIYLFDDPLSAVDAHVGKHIFENVIGPKGMLKNKTRILVTHSMSYLPQVDVIIVMSGGKISEMGSYQELLARDGAFAEFLRTYASTEQEQDAEENGVTGVSGPGKEAKQMENGMLVTDSAGKQLQRQLSSSSSYSGDISRHHNSTAELQKAEAKKEETWKLMEADKAQTGQVKLSVYWDYMKAIGLFISFLSIFLFMCNHVSALASNYWLSLWTDDPIVNGTQEHTKVRLSVYGALGISQGIAVFGYSMAVSIGGILASRCLHVDLLHSILRSPMSFFERTPSGNLVNRFSKELDTVDSMIPEVIKMFMGSLFNVIGACIVILLATPIAAIIIPPLGLIYFFVQRFYVASSRQLKRLESVSRSPVYSHFNETLLGVSVIRAFEEQERFIHQSDLKVDENQKAYYPSIVANRWLAVRLECVGNCIVLFAALFAVISRHSLSAGLVGLSVSYSLQVTTYLNWLVRMSSEMETNIVAVERLKEYSETEKEAPWQIQETAPPSSWPQVGRVEFRNYCLRYREDLDFVLRHINVTINGGEKVGIVGRTGAGKSSLTLGLFRINESAEGEIIIDGINIAKIGLHDLRFKITIIPQDPVLFSGSLRMNLDPFSQYSDEEVWTSLELAHLKDFVSALPDKLDHECAEGGENLSVGQRQLVCLARALLRKTKILVLDEATAAVDLETDDLIQSTIRTQFEDCTVLTIAHRLNTIMDYTRVIVLDKGEIQEYGAPSDLLQQRGLFYSMAKDAGLV
Km [1]: 268 µM | Km [2]: 0.05 µM
